Tests used:
[1] = test system: CCHFV nucleoprotein (NP) (Crimean-Congo hemorrhagic fever orthonairovirus); assay: fluorescence anisotropy
[2] = test system: CCHFV nucleoprotein (NP) (Crimean-Congo hemorrhagic fever orthonairovirus); assay: competition fluorescence anisotropy

Row | Substance | Kd [1] | IC50 [2]
1 | 27-mer RNA | 0.19 µM | 0.197 µM
2 | 48-mer RNA | 0.23 µM | 0.167 µM

From publication PMC7295242
